Test results published in article PMC3460915, “Identification, Characterization and Application of a G-Quadruplex Structured DNA Aptamer against Cancer Biomarker Protein Anterior Gradient Homolog 2”.

Experiments:
[1] = target: T1, GST-AGR2 (on GSH-Sepharose beads) (UniProt O95994 21-175); test: flow cytometry bead binding; 1x PBS (137 mM NaCl, 2.7 mM KCl, 10 mM Na2HPO4, 2.0 mM KH2PO4), pH 7.4, 37 C, 45 min, 200 uL; K+ varied in Fig 4; settings: protein: recombinant, (pGEX-GST-AGR2)
[2] = target: GST (on GSH-Sepharose beads) (UniProt P08515 1-218); test: as above; settings: protein: recombinant; chain copies: 2; label: FAM
[3] = target: T1, GST-AGR2 (on GSH-Sepharose beads); test: flow cytometry bead binding; with K+; 1x PBS (137 mM NaCl, 2.7 mM KCl, 10 mM Na2HPO4, 2.0 mM KH2PO4), pH 7.4, 37 C, 45 min, 200 uL; K+ varied in Fig 4; settings: protein: recombinant; (pGEX-GST-AGR2); label: 3' FAM; intramolecular parallel G4
Thrombin = Thrombin (UniProt P00734;P00734 328-363;364-622); test: SA-bead flow cytometry (allosteric beacon); 500 nM; SA beads; 1x PBS (137 mM NaCl, 2.7 mM KCl, 10 mM Na2HPO4, 2.0 mM KH2PO4), pH 7.4, 37 C, 45 min, 200 uL; K+ varied in Fig 4
Streptavidin (SA beads) = Streptavidin (SA beads) (UniProt P22629 25-183); test: SA-bead flow cytometry (allosteric beacon); with AGR2; 1x PBS (137 mM NaCl, 2.7 mM KCl, 10 mM Na2HPO4, 2.0 mM KH2PO4), pH 7.4, 37 C, 45 min, 200 uL; K+ varied in Fig 4; settings: protein: commercial; chain copies: 4; label: 3' FAM; hairpin
[4] = target: T1, GST-AGR2 (on GSH-Sepharose beads); test: SA-bead flow cytometry (allosteric beacon); SA beads; 100 nM AGR2 detected; 1x PBS (137 mM NaCl, 2.7 mM KCl, 10 mM Na2HPO4, 2.0 mM KH2PO4), pH 7.4, 37 C, 45 min, 200 uL; K+ varied in Fig 4; settings: protein: recombinant; (pGEX-GST-AGR2); label: 3' FAM; hairpin

T1 sequence (O95994 21-175): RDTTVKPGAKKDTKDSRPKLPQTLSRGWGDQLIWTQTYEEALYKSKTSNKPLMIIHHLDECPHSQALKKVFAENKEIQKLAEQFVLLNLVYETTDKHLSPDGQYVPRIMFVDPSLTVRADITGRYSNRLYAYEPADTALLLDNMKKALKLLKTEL
Sequence of Streptavidin (SA beads) (P22629 25-183): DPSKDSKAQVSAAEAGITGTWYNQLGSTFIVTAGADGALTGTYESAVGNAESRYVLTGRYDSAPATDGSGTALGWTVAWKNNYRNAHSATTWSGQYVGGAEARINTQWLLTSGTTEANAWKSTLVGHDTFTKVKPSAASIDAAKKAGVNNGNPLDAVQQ
Sequence of GST (on GSH-Sepharose beads) (P08515 whole entry): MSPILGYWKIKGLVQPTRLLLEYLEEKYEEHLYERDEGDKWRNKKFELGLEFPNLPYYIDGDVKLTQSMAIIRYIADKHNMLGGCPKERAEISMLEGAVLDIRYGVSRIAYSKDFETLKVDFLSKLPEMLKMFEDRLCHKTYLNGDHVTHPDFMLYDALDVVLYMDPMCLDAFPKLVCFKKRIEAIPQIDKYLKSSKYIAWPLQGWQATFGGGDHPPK

B1: C14B (ssDNA)
DNA: TCTCGGACGCGTGTGGTCGGGTGGGAGTTGTGGGGGGGGGTGGGAGGGTTCTTTGTTTGATCTTTCTCGCTGCCTGGCCCTAGAGTG
- Kd ([1]; label: FAM): 13.1 ± 7.2 nM
- binding result [2]: no binding

B2: C14D (ssDNA)
DNA: TCTCGGACGCGTGTGGTCGGTGCATTCTTCTGTTCTTTTAGTGTTTTGTGTTGTATGTTCTTATCCTCGCTGCCTGGCCCTAGAGTG
- Kd ([1]; label: FAM): 48.4 ± 15.6 nM

B3: C14B0 (ssDNA)
DNA: CGGGTGGGAGTTGTGGGGGGGGGTGGGAGGGTTCTTTGTTTGATCTTTCTCGCTGCCTGGCCCTAGAGTG
- Kd ([1]; label: FAM): 8.5 ± 3.6 nM

Binder: CGGGTGGGAGTTGTGGGGGGGGGTGGGAGGGTT (structured_DNA) [C14B1]
- Kd [3]: 6.2 ± 1.9 nM
- Kd ([1]; label: 3' FAM, intramolecular parallel G4): 19.1 ± 5.1 nM

B4: C14C (ssDNA)
DNA: TCTCGGACGCGTGTGGTCGGCGTTGGGTGGGGGTGGCGGGGGTAGGGTGGTAGGTCGCTAAAATGCTCGCTGCCTGGCCCTAGAGTG
- Kd ([1]; label: FAM): 44.6 ± 7 nM

B5: C14A (ssDNA)
DNA: TCTCGGACGCGTGTGGTCGGGGGGGCGGGGGTTGGGTGGTGGCTTCATTTTGTTTCACGTCGTCCTCGCTGCCTGGCCCTAGAGTG
- Kd ([1]; label: FAM): 20.9 ± 5.2 nM

B6: AGR2-aMB (structured_DNA)
DNA: CGACGCACCGATCGCAGGTTCGGGATTTTCGGGTGGGAGTTGTGGGGGGGGGTGGGAGGGTT
- binding result (Thrombin): no binding
- binding result (Streptavidin (SA beads)): binds
- binding result [4]: binds
